This sample holds only a part of the variants without activity.
What was measured:
[1] = system: biotinyl-Phe-oxazolone; assay: self-aminoacylation, catalytic enhancement (BFO) (fold over background); higher = more active; k-Seq, kA / k0A0; sequences stand for … in GGGAAUGGAUCCACAUCUACGAAUUC…UUCACUGCAGACUUGACGAAGCUG
Outline: (§1)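 Each biotinyl-aminoacyl-oxazolone, at 2–1250 μM, was incubated with mutagenized RNA pools (0.43 μM) carrying a 21-nt variable region. The 50 μL reactions contained HEPES/NaCl/KCl/MgCl2/CaCl2 buffer with 5% acetonitrile at pH 6.9–7.0 and ran for 90 minutes at room temperature. After streptavidin capture, RNA was measured by qPCR in triplicate and by Illumina sequencing, and catalytic enhancement was calculated as median kA over the uncatalyzed rate from a pseudo-first-order fit of per-sequence fraction reacted.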

[2] = system: biotinyl-Ile-oxazolone; assay: self-aminoacylation, catalytic enhancement (BIO) (fold over background); higher = more active; k-Seq, kA / k0A0; sequences stand for … in GGGAAUGGAUCCACAUCUACGAAUUC…UUCACUGCAGACUUGACGAAGCUG
Outline: as §1

[3] = system: biotinyl-Met-oxazolone; assay: self-aminoacylation, catalytic enhancement (BMO) (fold over background); higher = more active; k-Seq, kA / k0A0; sequences stand for … in GGGAAUGGAUCCACAUCUACGAAUUC…UUCACUGCAGACUUGACGAAGCUG
Outline: as §1

[4] = system: biotinyl-Val-oxazolone; assay: self-aminoacylation, catalytic enhancement (BVO) (fold over background); higher = more active; k-Seq, kA / k0A0; sequences stand for … in GGGAAUGGAUCCACAUCUACGAAUUC…UUCACUGCAGACUUGACGAAGCUG
Outline: as §1

[5] = system: biotinyl-Leu-oxazolone; assay: self-aminoacylation, catalytic enhancement (BLO) (fold over background); higher = more active; k-Seq, kA / k0A0; sequences stand for … in GGGAAUGGAUCCACAUCUACGAAUUC…UUCACUGCAGACUUGACGAAGCUG
Outline: as §1

[6] = system: biotinyl-Trp-oxazolone; assay: self-aminoacylation, catalytic enhancement (BWO) (fold over background); higher = more active; k-Seq, kA / k0A0; sequences stand for … in GGGAAUGGAUCCACAUCUACGAAUUC…UUCACUGCAGACUUGACGAAGCUG
Outline: as §1

Sequence | self-aminoacylation [1] | self-aminoacylation [2] | self-aminoacylation [3] | self-aminoacylation [4] | self-aminoacylation [5] | self-aminoacylation [6]
AUUACCCUGCUCAUGGAGUGA [Fam2.1 aminoacylation ribozyme variant] | 63.7 | 4.53 | 9.54 | 4.47 | 10.1 | 12.3
GUUACCCUGGUCCUCGAGUGA [Fam2.1 aminoacylation ribozyme variant] | 42.7 | 3.36 | 6.3 | 4.16 | 5.97 | 6.45
AUUCACCCAGGUCAUCGGGUA [Fam2.2 aminoacylation ribozyme variant] | 12.7 | 2.25 | 2.51 | 2.27 | 2.76 | 2.93
AUUCCCCUAGGUCAUCGGAUG [Fam2.2 aminoacylation ribozyme variant] | 2.14 | 3.04 | 2.88 | 3.49 | 3.28 | 4.36
AUGUUUGCUAAUAGUCCCAAG [Fam3.1 aminoacylation ribozyme variant] | 2.79 | 1.08 | 0.965 | 1.11 | 0.966 | 1.25
AUUUACCUAGGUCUUCGGGUG [Fam2.2 aminoacylation ribozyme variant] | 24.9 | 2.84 | 4.28 | 3.38 | 4.16 | 3.92
AUUCACCGAGGUCCUCGGGUG [Fam2.2 aminoacylation ribozyme variant] | 84.6 | 6.76 | 11.3 | 6.63 | 14.6 | 9.2
CCACAGUUAAAGCAAUCGGUC [Fam1B.1 aminoacylation ribozyme variant] | 0.915 | 0.832 | 0.836 | 0.98 | 0.963 | 0.869
AAGUCUGCCAAUAGUCGCAAG [Fam3.1 aminoacylation ribozyme variant] | 1.53 | 1.18 | 1.84 | 1.06 | 0.879 | 1.28
AUUCGCCGAGGUCAUCGGGUG [Fam2.2 aminoacylation ribozyme variant] | 80.2 | 6.76 | 12.4 | 7.83 | 13.7 | 9.29
AACUUUGCUAAUAGUCGCGAG [Fam3.1 aminoacylation ribozyme variant] | 19.5 | 3.52 | 2.99 | 2.76 | 3.74 | 3.11
AAGAUUGCUAAUACUCGCAAG [Fam3.1 aminoacylation ribozyme variant] | 1.48 | 1.72 | 1.41 | 1.37 | 1.24 | 1.91
CCACACUUCAAGGAAUCCGUC [Fam1B.1 aminoacylation ribozyme variant] | 0.963 | 1.24 | 1.65 | 1.14 | 1.08 | 1.07
CCCCACUUCAAGCAACCGGUC [Fam1B.1 aminoacylation ribozyme variant] | 3.09 | 1.99 | 1.82 | 2.15 | 2.05 | 2.18
UAGUUUGCUAAUAGUCGCAAU [Fam3.1 aminoacylation ribozyme variant] | 3.04 | 1.52 | 1.38 | 1.61 | 1.28 | 1.88
AUUCACCUAGAUCAUCGGGCG [Fam2.2 aminoacylation ribozyme variant] | 8.81 | 1.96 | 3.12 | 1.93 | 2.33 | 1.28
AUUCACCUAAGUCAUCGGGUC [Fam2.2 aminoacylation ribozyme variant] | 1.31 | 1.01 | 1.42 | 1.53 | 1.13 | 1.78
AUUCACCUUGGUCAUCGGGUU [Fam2.2 aminoacylation ribozyme variant] | 8.05 | 1.67 | 1.84 | 2.08 | 2.38 | 2.14
CCAGACUUCACGCAAUCGGUC [Fam1B.1 aminoacylation ribozyme variant] | 4.39 | 1.64 | 1.79 | 1.76 | 1.6 | 1.65
CUUCUCCAAACAAUCGGUCUG [Fam1A.1 aminoacylation ribozyme variant] | 1.26 | 0.67 | 0.772 | 0.831 | 0.723 | 0.962
CAGUUUGCUAAUAGUCGGAAG [Fam3.1 aminoacylation ribozyme variant] | 3.05 | 1.27 | 1.26 | 1.35 | 1.11 | 1.43
CCACACAUCAAGCAUUCGGUC [Fam1B.1 aminoacylation ribozyme variant] | 1.02 | 1.75 | 1.6 | 1.64 | 1.48 | 1.19
CCCCACAUCAAGCAAUCGGUC [Fam1B.1 aminoacylation ribozyme variant] | 3.1 | 1.67 | 1.22 | 1.5 | 1.63 | 2.47
AAGCUUGCUCAUAGUCGCAAG [Fam3.1 aminoacylation ribozyme variant] | 2.34 | 1.99 | 2.05 | 1.99 | 1.52 | 1.59
AUUCAACUAGAUCAUCGGGUG [Fam2.2 aminoacylation ribozyme variant] | 9.72 | 1.82 | 2.44 | 1.77 | 2.53 | 2.93
AAGUUUGCUCAUAAUCGCAAG [Fam3.1 aminoacylation ribozyme variant] | 0.71 | 0.812 | 0.699 | 0.766 | 0.726 | 0.658

Sequence | self-aminoacylation [1] | self-aminoacylation [2] | self-aminoacylation [3] | self-aminoacylation [4] | self-aminoacylation [5] | self-aminoacylation [6]
ACACACUUUAAGCAAUCGGUC [Fam1B.1 aminoacylation ribozyme variant] | 1.34 | 1.06 | 0.832 | 0.949 | 0.948 | 1.03
CCACACCUCAAGCAAUCGGUG [Fam1B.1 aminoacylation ribozyme variant] | 32.5 | 3.55 | 5.05 | 3.17 | 7.12 | 5.99
CCACACCUCAAGCAAUCGGGC [Fam1B.1 aminoacylation ribozyme variant] | 1.92 | 1.86 | 1.49 | 2.33 | 1.71 | 2.11
AACUUUGCUAAUAGUCGCAGG [Fam3.1 aminoacylation ribozyme variant] | 14.1 | 2.29 | 3.29 | 2.29 | 2.75 | 3.48
AUUCCGCUAGGUCAUCGGGUG [Fam2.2 aminoacylation ribozyme variant] | 128 | 8.43 | 14 | 8.93 | 17.7 | 13.6
AAGUUUGCUAAUAGUCGAAAU [Fam3.1 aminoacylation ribozyme variant] | 1.52 | 1.31 | 1.39 | 1.37 | 1.01 | 2
AUUCACCUAGGUUAUCGGGAG [Fam2.2 aminoacylation ribozyme variant] | 0.308 | 1.21 | 1.17 | 1.55 | 1.17 | 0.528
GUUACCCUGGUCAUCGUGUGA [Fam2.1 aminoacylation ribozyme variant] | 30.3 | 2.6 | 4.3 | 3.08 | 4.75 | 6.06
CCGCACUUCAAGCAAGCGGUC [Fam1B.1 aminoacylation ribozyme variant] | 1.43 | 1.65 | 1.43 | 1.67 | 1.31 | 2
CCACGCUUCACGCAAUCGGUC [Fam1B.1 aminoacylation ribozyme variant] | 0.964 | 1.15 | 1.4 | 1.82 | 1.09 | 1.95
CUACUUCAAUCCAUCGGUCUG [Fam1A.1 aminoacylation ribozyme variant] | 0.866 | 0.857 | 0.738 | 0.821 | 0.737 | 0.728
AUCACCCUGGUUAUCGAGUGA [Fam2.1 aminoacylation ribozyme variant] | 86.5 | 4.98 | 12 | 5.37 | 13.5 | 12.2
CUACUUCGAACAAUCGGUCUG [Fam1A.1 aminoacylation ribozyme variant] | 0.684 | 0.623 | 0.618 | 0.684 | 0.614 | 0.566
AUGACCCUGGUCAUAGAGUGA [Fam2.1 aminoacylation ribozyme variant] | 46.6 | 3.35 | 7.12 | 3.59 | 6.95 | 6.89
CUAUCUCAAACAAUCGGUCUG [Fam1A.1 aminoacylation ribozyme variant] | 1.87 | 0.789 | 0.856 | 0.781 | 0.628 | 1.35
AUUAUCAUGGUCAUCGAGUGA [Fam2.1 aminoacylation ribozyme variant] | 10.8 | 3.56 | 6.24 | 3.44 | 6.75 | 8.2
AUUCAACUAGGCCAUCGGGUG [Fam2.2 aminoacylation ribozyme variant] | 21.5 | 2.61 | 3.66 | 2.31 | 3.74 | 3.9
CUUCACCUAGGUCAUCUGGUG [Fam2.2 aminoacylation ribozyme variant] | 4.76 | 1.58 | 1.79 | 1.74 | 2.25 | 2.15
ACACACUUGAAGCAAUCGGUC [Fam1B.1 aminoacylation ribozyme variant] | 1.25 | 1 | 0.88 | 1.23 | 0.919 | 1.17
AUUACCCUGUUCAUCGAAUGA [Fam2.1 aminoacylation ribozyme variant] | 1.18 | 0.982 | 1.16 | 1.13 | 0.871 | 0.767
AUUCACCUAGGUCAUCGUCUG [Fam2.2 aminoacylation ribozyme variant] | 0.312 | 0.663 | 0.67 | 0.718 | 0.717 | 0.376
AAGUGCGCUAAUAGUCGCAAG [Fam3.1 aminoacylation ribozyme variant] | 3.73 | 1.84 | 1.19 | 1.8 | 1.38 | 4.08
CCACUCAUCAAGCAAUCGGUC [Fam1B.1 aminoacylation ribozyme variant] | 0.817 | 0.977 | 0.73 | 0.971 | 0.997 | 0.731
CCACAGCUCAAGCAAUCGGUC [Fam1B.1 aminoacylation ribozyme variant] | 3.21 | 1.18 | 1.05 | 1.29 | 1.16 | 2.35
GUUCUCCUAGGUCAUCGGGUG [Fam2.2 aminoacylation ribozyme variant] | 55.1 | 6.21 | 9.55 | 6.51 | 13.7 | 9.42

From the supplement of paper PMC9233669
